These results are taken from patent US20260125455A1 (CLEVELAND CLINIC FOUNDATION, published 2026).

Assay [1] has as its target T1, human complement protein C6 (human, UniProt P13671 22-934).
T1 construct: also called human C6; C6 antigen
Nature of the assay: SPR (Biacore 8K). The procedure:
(§1) The kinetics of C6 binding was compared for the purified chimeric and lead humanized C601 using surface plasmon resonance (SPR, Biacore 8K). IgG were captured on a protein G sensor chip and binding of C6 measured using a three-fold concentration series of C6 from 0.03 nM-25 nM (FIG. 5). In a second experiment, a two-fold concentration series from 0.31 nM-20 nM C6 was used (FIG. 6). For all antibodies, binding of C6 occurred in a concentration-dependent manner and data could be fitted using a 1:1 model to calculate the association rate (kₒₙ), dissociation rates (kd) and affinity constant (KD). The kinetic data are shown in Table 5, which indicates only small differences between the parameters determined from the two independent experiments.
Binding ELISAs used Nunc Maxisorp 384-well plates, wells coated with C6, C5b,6 complex or C5 (Complement Technology Inc, TX) and goat anti-human IgG (Fab specific) peroxidase secondary antibodies (Sigma-Aldrich, A0293) for detection. For the thermal stability assay, IgG supernatants were diluted to their EC₈₀ concentration, incubated at different temperatures for 10 min and C6 binding measured by ELISA with the binding signal plotted against temperature. […] Binding of C6 measured using a three-fold concentration series of C6 from 0.03 nM-25 nM and data were fitted using a 1:1 model in two independent experiments.
For orientation: SPR reads the build-up and loss of mass on a sensor chip optically.

The target of assay [2] is T1, human complement protein C6. Nature of the assay: SPR (Biacore 8K), IgG on protein G chip, C6 0.31-20 nM 2-fold series, 1:1 fit. The procedure: as §1
For assay [3] the target is unchanged. Nature of the assay: SPR (Biacore 8K). The procedure: as §1
(§2) Binding ELISAs used Nunc Maxisorp 384-well plates, wells coated with C6, C5b,6 complex or C5 (Complement Technology Inc, TX) and goat anti-human IgG (Fab specific) peroxidase secondary antibodies (Sigma-Aldrich, A0293) for detection. For the thermal stability assay, IgG supernatants were diluted to their EC₈₀ concentration, incubated at different temperatures for 10 min and C6 binding measured by ELISA with the binding signal plotted against temperature. Kinetics of C6 binding were measured by capturing antibodies from supernatant samples using Protein G biosensors and performing a 20 min association step with 2.5 nM C6 and a 20 min dissociation step using the Octet RED96. Precise kinetic measurements were obtained by surface plasmon resonance (Biacore 8K, Cytiva). The IgG were captured on a protein G sensor chip. Binding of C6 measured using a three-fold concentration series of C6 from 0.03 nM-25 nM and data were fitted using a 1:1 model in two independent experiments.
The source holds these as a separate data set.

Assay [4] shares this target. Nature of the assay: ELISA, purified protein, anti-human IgG (Fab-specific) detection. The procedure: The binding of the purified chimeric molecules, MoC601 HuG4K and MoC601 HuG1KFab, was also confirmed by ELISA, where the anti-human IgG (Fab-specific) secondary reagent was used. The control mouse antibody bound as previously (EC₅₀ 0.11 nM). The EC₅₀ for purified MoC601 HuG4K (0.27 nM) was similar to that obtained for the MoC601 HuG4K supernatant sample above. […] The EC₅₀ value for the Fab molecule (0.48 nM) was higher than for the antibody, which would be expected since the Fab is unable to bind bivalently to the antigen on the well. A C6-binding assay was also set up on the Octet RED384 instrument. […] However, MoC601 MoG1K could be stably loaded onto anti-mouse Fc (AMC) biosensors. Concentrations of the mouse and chimeric antibodies were adjusted to give similar levels of loading on to the AMC and […]
On the technique in general: In an ELISA, binding on a coated surface is turned into a signal by an enzyme label.

For assay [5] the target is unchanged. Nature of the assay: ELISA, C6-coated wells, purified antibody.
Assay [6] shares this target. The assay can be described thus: ELISA, C6-coated wells.
For assay [7] the target is unchanged. Nature of the assay: SPR (Biacore 8K), IgG on protein G chip, C6 0.03-25 nM 3-fold series, 1:1 fit. The procedure: as §1, §2
For assay [8] the target is unchanged. Nature of the assay: C6-binding ELISA, A650 nm; sample 'PBS' (28 days at 37 C). The procedure: (§3) For the serum stability assessment, samples of the purified candidate antibodies are normally incubated in mouse, human and cynomolgus serum at 37 C for 28 days and then tested in an antigen-binding ELISA. Since the anti-C6 antibodies are expected to bind to both human and cynomolgus C6 but not mouse C6, we anticipated that incubating in human or cynomolgus sera would reduce ELISA binding due to occupation of the antibody binding sites by C6 protein from the sera. Therefore, the chimeric and humanized antibodies were tested with human and mouse sera and with human sera from which the C6 protein has been depleted. The C6-binding ELISA was then used to compare the binding abilities of the C601 antibodies that had been incubated in the 3 different sera to antibody samples that were incubated in PBS at 37 C or kept at 4 C (non-incubated).
(§4) The Uncle instrument (Unchained Labs) was used to monitor unfolding via intrinsic fluorescence and aggregation by static light scattering across a temperature gradient to obtain melting temperatures (Tₘ). […] Isoelectric points were determined by capillary isoelectric focusing using a PA800+ (Beckman Coulter). […]

Assay [9] has as its target human complement protein C5 (human, UniProt P01031 19-673; P01031 678-1676). The assay can be described thus: ELISA, C5-coated wells.
Assay [10] deals with T1, human complement protein C6. The assay can be described thus: C6-binding ELISA, A650 nm; sample 'mouse serum' (28 days at 37 C). The procedure:
as §3, §4

For assay [11] the target is unchanged. Nature of the assay: C6-binding ELISA, A650 nm; sample 'PBS' (28 days at 37 C). The procedure: as §3, with “The C6-binding ELISA was then used to compare the binding abilities of the C601 antibodies that had been incubated in the 3 different sera to antibody samples that were incubated in PBS at 37 C or kept at 4 C (non-incubated).” left out
as §2, with “Precise kinetic measurements were obtained by surface plasmon resonance (Biacore 8K, Cytiva). The IgG were captured on a protein G sensor chip. Binding of C6 measured using a three-fold concentration series of C6 from 0.03 nM-25 nM and data were fitted using a 1:1 model in two independent experiments.” left out
This is another data set of the same source.

T1 sequence (P13671 22-934 limits assumed): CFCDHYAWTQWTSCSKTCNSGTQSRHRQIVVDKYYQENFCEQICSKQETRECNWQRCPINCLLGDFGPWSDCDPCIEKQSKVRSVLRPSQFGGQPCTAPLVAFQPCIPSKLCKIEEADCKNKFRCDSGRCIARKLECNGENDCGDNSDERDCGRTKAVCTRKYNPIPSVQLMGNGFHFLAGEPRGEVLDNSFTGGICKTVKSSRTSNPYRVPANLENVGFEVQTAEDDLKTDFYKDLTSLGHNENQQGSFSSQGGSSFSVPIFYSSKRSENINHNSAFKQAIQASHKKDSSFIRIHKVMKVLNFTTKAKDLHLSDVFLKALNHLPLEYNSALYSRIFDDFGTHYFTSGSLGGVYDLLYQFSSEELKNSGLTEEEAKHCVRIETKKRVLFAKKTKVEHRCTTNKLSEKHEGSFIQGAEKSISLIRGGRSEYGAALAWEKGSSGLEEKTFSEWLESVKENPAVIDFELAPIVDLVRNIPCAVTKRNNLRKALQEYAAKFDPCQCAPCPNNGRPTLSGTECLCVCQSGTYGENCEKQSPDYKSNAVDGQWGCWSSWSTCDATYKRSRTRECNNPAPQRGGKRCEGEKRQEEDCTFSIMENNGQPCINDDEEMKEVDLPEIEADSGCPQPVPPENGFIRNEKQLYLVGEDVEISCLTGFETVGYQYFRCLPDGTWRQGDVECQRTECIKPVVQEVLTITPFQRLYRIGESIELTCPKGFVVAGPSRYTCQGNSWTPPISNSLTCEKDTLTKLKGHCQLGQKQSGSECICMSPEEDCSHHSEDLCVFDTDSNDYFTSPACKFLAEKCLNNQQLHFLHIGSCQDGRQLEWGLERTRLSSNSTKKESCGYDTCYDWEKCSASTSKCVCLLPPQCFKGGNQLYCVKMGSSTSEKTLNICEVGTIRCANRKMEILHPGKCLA
human complement protein C5, sequence (P01031 19-673 limits assumed, chain 1 of 2): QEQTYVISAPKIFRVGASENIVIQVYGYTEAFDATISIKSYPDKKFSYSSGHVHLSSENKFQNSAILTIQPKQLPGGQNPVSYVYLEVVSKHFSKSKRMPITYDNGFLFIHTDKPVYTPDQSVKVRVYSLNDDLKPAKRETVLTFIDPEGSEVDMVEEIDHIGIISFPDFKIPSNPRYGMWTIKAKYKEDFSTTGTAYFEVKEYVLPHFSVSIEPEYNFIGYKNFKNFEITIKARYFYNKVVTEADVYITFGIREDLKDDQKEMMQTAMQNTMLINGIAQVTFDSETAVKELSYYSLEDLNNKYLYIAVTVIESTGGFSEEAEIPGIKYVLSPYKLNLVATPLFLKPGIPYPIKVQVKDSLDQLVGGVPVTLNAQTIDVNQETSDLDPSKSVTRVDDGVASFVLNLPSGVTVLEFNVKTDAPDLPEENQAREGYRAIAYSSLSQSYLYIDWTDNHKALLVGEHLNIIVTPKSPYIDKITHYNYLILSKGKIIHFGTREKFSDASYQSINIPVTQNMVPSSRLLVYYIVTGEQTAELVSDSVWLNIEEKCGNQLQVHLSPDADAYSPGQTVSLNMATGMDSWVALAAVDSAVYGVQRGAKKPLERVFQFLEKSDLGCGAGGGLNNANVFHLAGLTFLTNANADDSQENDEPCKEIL
human complement protein C5, sequence (P01031 678-1676 limits assumed, chain 2 of 2): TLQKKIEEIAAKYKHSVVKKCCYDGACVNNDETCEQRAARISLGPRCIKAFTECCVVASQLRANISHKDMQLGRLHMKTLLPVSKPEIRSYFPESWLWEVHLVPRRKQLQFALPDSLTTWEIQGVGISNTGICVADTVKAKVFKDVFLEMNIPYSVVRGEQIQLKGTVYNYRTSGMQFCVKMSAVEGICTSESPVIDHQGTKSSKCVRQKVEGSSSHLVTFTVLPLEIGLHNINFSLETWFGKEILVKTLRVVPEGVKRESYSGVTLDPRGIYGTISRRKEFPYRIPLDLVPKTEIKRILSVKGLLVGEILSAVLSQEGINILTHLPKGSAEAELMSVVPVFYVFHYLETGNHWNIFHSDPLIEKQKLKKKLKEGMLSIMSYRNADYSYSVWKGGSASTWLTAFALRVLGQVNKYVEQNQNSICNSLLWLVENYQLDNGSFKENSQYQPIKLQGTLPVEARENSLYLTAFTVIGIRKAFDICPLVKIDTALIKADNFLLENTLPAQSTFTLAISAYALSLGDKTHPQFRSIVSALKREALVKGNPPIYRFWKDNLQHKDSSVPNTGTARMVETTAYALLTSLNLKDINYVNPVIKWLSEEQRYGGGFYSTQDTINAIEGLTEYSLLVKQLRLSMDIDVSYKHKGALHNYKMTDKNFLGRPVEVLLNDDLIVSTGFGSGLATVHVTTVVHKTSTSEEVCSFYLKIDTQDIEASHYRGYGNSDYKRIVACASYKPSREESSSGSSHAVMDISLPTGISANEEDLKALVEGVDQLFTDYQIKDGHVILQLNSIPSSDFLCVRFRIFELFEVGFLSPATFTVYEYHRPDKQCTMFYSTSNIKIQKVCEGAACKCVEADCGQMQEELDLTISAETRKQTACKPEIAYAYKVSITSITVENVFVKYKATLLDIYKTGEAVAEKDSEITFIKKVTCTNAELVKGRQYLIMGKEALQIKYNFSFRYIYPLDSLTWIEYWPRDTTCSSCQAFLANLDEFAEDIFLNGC

B1: MoC601 HuG4K (chimeric C601 antibody) (antibody, human IgG4 S228P, kappa, V domains shown)
VH: QVQLQQSGAELVKPGASVKISCKASGYAFSDYWMNWVKQRPGKGLEWIGQIYPGDDDTNYNGKFKGKATLTADKSSSTAYMQLSSLTSEDSAVYFCAREGYYGYTYVEYFDVWGTGTTVTVSS
VL: QIVLTQSPAIMSVSPGEKVTLTCSASSSVSYMHWYQQKSGTSPKRWIYDTSKLASGVPARFSGSGSGTSYSLTISSMEAEDAATYYCQQWTSNPLTFGAGTKLELRR
notes: also called chimeric antibody; chimeric 1C9
By Kd is commonly meant the concentration at which binding is half-saturated. A higher Kd goes with weaker binding. As a reminder, the koff is the rate constant with which the complex falls apart. A higher koff goes with fast dissociation. As a reminder, the kon is the rate constant with which the complex forms. Higher therefore signals fast association. The EC50 is the midpoint of the concentration-response curve. A lower EC50 goes with an effect from little substance. On to B1, for which the equilibrium dissociation constant (Kd) in assay [1] worked out at 0.527 nM; in assay [2], 0.459 nM; in assay [3], 0.527 nM; in assay [7], 0.527 nM. The off-rate (koff) in assay [2] came to 0.000413 s⁻¹; in [7] it was 0.000448 s⁻¹. For the same molecule, the figures for the on-rate (kon) in [2] and in [7] were 900000 M⁻¹ s⁻¹ and 850000 M⁻¹ s⁻¹, respectively. Moreover, the EC50 was 0.27 nM in assay [4], 0.2 nM in [5], 0.2 nM in assay [6] and 0.19 nM in [8]. Moreover, in assay [9], the binding result is “no binding”.

B2: C601HFKC4 HuG4K (antibody, human IgG4 S228P, kappa)
heavy: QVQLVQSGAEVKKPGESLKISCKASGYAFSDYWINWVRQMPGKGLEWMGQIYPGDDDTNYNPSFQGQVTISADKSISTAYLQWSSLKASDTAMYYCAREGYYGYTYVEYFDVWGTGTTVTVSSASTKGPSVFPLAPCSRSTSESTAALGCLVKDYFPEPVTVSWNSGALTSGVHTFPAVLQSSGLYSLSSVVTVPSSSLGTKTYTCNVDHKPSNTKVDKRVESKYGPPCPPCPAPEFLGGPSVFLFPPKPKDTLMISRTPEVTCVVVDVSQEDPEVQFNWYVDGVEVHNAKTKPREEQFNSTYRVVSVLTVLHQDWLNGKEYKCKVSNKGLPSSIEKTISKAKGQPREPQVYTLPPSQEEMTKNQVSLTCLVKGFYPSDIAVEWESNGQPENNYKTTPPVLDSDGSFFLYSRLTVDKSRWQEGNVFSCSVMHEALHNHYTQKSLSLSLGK
light: QIVLTQSPATLSLSPGERATLSCRASSSVSYLHWYQQKPGQSPRLWIYDTSKRATGIPARFSGSGSGTDYTLTISSLEPEDFAVYYCQQWTSNPLTFGQGTKLEIKRTVAAPSVFIFPPSDEQLKSGTASVVCLLNNFYPREAKVQWKVDNALQSGNSQESVTEQDSKDSTYSLSSTLTLSKADYEKHKVYACEVTHQGLSSPVTKSFNRGEC
notes: also called 3713; clone 3713
Turning to B2, the dissociation constant (Kd) in [1] turned out to be 0.343 nM; in [2], 0.226 nM; in assay [3], 0.343 nM; in assay [7] it was 0.343 nM. Moreover, the koff in assay [2] was 0.000306 s⁻¹; in assay [7], 0.000389 s⁻¹. Besides, the figures for the kon in assay [2] and in assay [7] were 1.36e+06 M⁻¹ s⁻¹ and 1.13e+06 M⁻¹ s⁻¹, respectively. Also, the EC50 is 0.15 nM in assay [10], 0.19 nM in [11] and 0.19 nM in [6].
